Test results: paper PMC8034659

T1: TrfA wt (G254D/S267L, 33 kDa) (plasmid RK2, UniProt P07676 98-382, G254D;S267L)
T1 sequence: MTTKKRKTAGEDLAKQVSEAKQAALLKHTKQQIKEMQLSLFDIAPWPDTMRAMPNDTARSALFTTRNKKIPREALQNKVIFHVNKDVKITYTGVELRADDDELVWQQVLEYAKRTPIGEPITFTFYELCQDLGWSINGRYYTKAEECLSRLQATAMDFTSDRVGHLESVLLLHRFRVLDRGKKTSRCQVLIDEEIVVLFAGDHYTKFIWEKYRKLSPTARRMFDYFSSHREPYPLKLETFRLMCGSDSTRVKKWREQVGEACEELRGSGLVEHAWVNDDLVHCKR

B1: 3T (dsDNA)
DNA 1: AGTGATGACAGATGAGGGGCGC
DNA 2: GCGCCCCTCATCTGTCATCACT
modifications: C2dT at T3 of top strand
B2: 40T (dsDNA)
DNA 1: AGTGATGACAGATGAGGGGCGC
DNA 2: GCGCCCCTCATCTGTCATCACT
modifications: C2dT at T18 of bottom strand
B3: 37T (dsDNA)
DNA 1: AGTGATGACAGATGAGGGGCGC
DNA 2: GCGCCCCTCATCTGTCATCACT
modifications: C2dT at T15 of bottom strand
B4: 53T (dsDNA)
DNA 1: CCTGCGGTATTGACACTTGAGGGGCGCGACTACTGACAGATGAGGGGCGCGATCCTTGACACTTGAGGGGCAGAGTGATGACAGATGAGGGGCGCACCTATTGACATTTGAGGGGCTGTCCACAGGCAG
DNA 2: CTGCCTGTGGACAGCCCCTCAAATGTCAATAGGTGCGCCCCTCATCTGTCATCACTCTGCCCCTCAAGTGTCAAGGATCGCGCCCCTCATCTGTCAGTAGTCGCGCCCCTCAAGTGTCAATACCGCAGG
modifications: 5-Br-dU at T53 of top strand
B5: 56T (dsDNA)
DNA 1: CCTGCGGTATTGACACTTGAGGGGCGCGACTACTGACAGATGAGGGGCGCGATCCTTGACACTTGAGGGGCAGAGTGATGACAGATGAGGGGCGCACCTATTGACATTTGAGGGGCTGTCCACAGGCAG
DNA 2: CTGCCTGTGGACAGCCCCTCAAATGTCAATAGGTGCGCCCCTCATCTGTCATCACTCTGCCCCTCAAGTGTCAAGGATCGCGCCCCTCATCTGTCAGTAGTCGCGCCCCTCAAGTGTCAATACCGCAGG
modifications: 5-Br-dU at T56 of top strand
B6: 71B (dsDNA)
DNA 1: CCTGCGGTATTGACACTTGAGGGGCGCGACTACTGACAGATGAGGGGCGCGATCCTTGACACTTGAGGGGCAGAGTGATGACAGATGAGGGGCGCACCTATTGACATTTGAGGGGCTGTCCACAGGCAG
DNA 2: CTGCCTGTGGACAGCCCCTCAAATGTCAATAGGTGCGCCCCTCATCTGTCATCACTCTGCCCCTCAAGTGTCAAGGATCGCGCCCCTCATCTGTCAGTAGTCGCGCCCCTCAAGTGTCAATACCGCAGG
modifications: 5-Br-dU in bottom strand: CAAGTG[BrdU]CAAGG
B7: 58B (dsDNA)
DNA 1: CCTGCGGTATTGACACTTGAGGGGCGCGACTACTGACAGATGAGGGGCGCGATCCTTGACACTTGAGGGGCAGAGTGATGACAGATGAGGGGCGCACCTATTGACATTTGAGGGGCTGTCCACAGGCAG
DNA 2: CTGCCTGTGGACAGCCCCTCAAATGTCAATAGGTGCGCCCCTCATCTGTCATCACTCTGCCCCTCAAGTGTCAAGGATCGCGCCCCTCATCTGTCAGTAGTCGCGCCCCTCAAGTGTCAATACCGCAGG
modifications: 5-Br-dU in bottom strand: CACTC[BrdU]GCCCC
B8: 69B (dsDNA)
DNA 1: CCTGCGGTATTGACACTTGAGGGGCGCGACTACTGACAGATGAGGGGCGCGATCCTTGACACTTGAGGGGCAGAGTGATGACAGATGAGGGGCGCACCTATTGACATTTGAGGGGCTGTCCACAGGCAG
DNA 2: CTGCCTGTGGACAGCCCCTCAAATGTCAATAGGTGCGCCCCTCATCTGTCATCACTCTGCCCCTCAAGTGTCAAGGATCGCGCCCCTCATCTGTCAGTAGTCGCGCCCCTCAAGTGTCAATACCGCAGG
modifications: 5-Br-dU in bottom strand: CTCAAG[BrdU]GTCAAGG
B9: 57T (dsDNA)
DNA 1: CCTGCGGTATTGACACTTGAGGGGCGCGACTACTGACAGATGAGGGGCGCGATCCTTGACACTTGAGGGGCAGAGTGATGACAGATGAGGGGCGCACCTATTGACATTTGAGGGGCTGTCCACAGGCAG
DNA 2: CTGCCTGTGGACAGCCCCTCAAATGTCAATAGGTGCGCCCCTCATCTGTCATCACTCTGCCCCTCAAGTGTCAAGGATCGCGCCCCTCATCTGTCAGTAGTCGCGCCCCTCAAGTGTCAATACCGCAGG
modifications: 5-Br-dU at T57 of top strand

How the values were obtained:
[1] = biological target: T1, TrfA wt (G254D/S267L, 33 kDa); test: crosslinking-MS
[2] = biological target: T1, TrfA wt (G254D/S267L, 33 kDa); test: UV crosslinking

Row | Binder | binding result [1] | binding result [2]
1 | B1 | binds | 
2 | B2 | binds | 
3 | B3 | binds | 
4 | B4 |  | binds
5 | B5 |  | binds
6 | B6 |  | binds
7 | B7 |  | binds
8 | B8 |  | binds
9 | B9 |  | binds
